Reference: US20230220399
Where two headings read alike, the source gives them in different places.

How the values were obtained:
[1] = target: 4-1BB (TNFRSF9) (Homo sapiens) (UniProt Q07011); conditions: ELISA
[2] = target: human serum albumin (HSA) (Homo sapiens) (UniProt P02768); conditions: ELISA, SB18, 37 C
[3] = target: PD-L1 (B7-H1) (Homo sapiens) (UniProt Q9NZQ7); conditions: ELISA, SB18, 37 C
KRAS G12D G12D, P01116-2 = conditions: ELISA, SB18, 37 C
[4] = Nap-dU at n (6) positions [Nap-dU at 24,31,33,36,39,40,43,52]
[5] = Nap-dU at n (6) positions [5,11,13,19,21,23,28]
[6] = Nap-dU at n (6) positions [5,11,13,19,21,23,28,36,38]
[7] = Nap-dU at n (6) positions [5,11,13,19,21,23,28,36,38,42-44]
[8] = Nap-dU at n (6) positions [5,11,13,19,21,23,28,36,38,42,43,44,45]
[9] = Nap-dU at n (6) positions [5,11,13,19,21,23,28,36,38,42-45,52,54]
[10] = Nap-dU at n (6) positions [5,11,13,19,21,23,28,36,37,39,44,45,50,52,54]
[11] = Nap-dU at n (6) positions [8,10-11,13,18-19,24,26,29]
[12] = Nap-dU at n (6) positions [8,10-11,13,18-19,24,26,29,36,39]
[13] = Nap-dU at n (6) positions [3,5-6,8,13-14,19,21,24]
[14] = Nap-dU at n (6) positions [5,7,9,14,22,24,28,29,30,31,38,40]
[15] = Nap-dU at n (6) positions [2,4,10,12,14,19,27,29,33,34,35,36,43,45]
[16] = Nap-dU at n (6) positions [4,9,13,19,26,27,28,30]
[17] = Nap-dU at n (6) positions [Nap-dU at 29,36,38,41,44,45,48,57]
[18] = Nap-dU at n (6) positions [16,25,27-28,30,35-36,41,43,46,53,56]
[19] = Nap-dU at n (6) positions [12,21,26,30,36,43,44,45,47,56]
[20] = Nap-dU at n (6) positions [Nap-dU at 18,22,26,34,36,39,42,43,46,52,57]
[21] = Nap-dU at n (6) positions [18,20,22,32,33,34,35,36,44,45,47,53,57 (Nap-dU)]
[22] = Nap-dU at n (6) positions [18,20,26,27,29,31,35,36,42,45,53,54,55,56]
[23] = Nap-dU at n (6) positions [4,8,14,21-23,25]
[24] = Nap-dU at n (6) positions [4,8,14,21,22,23,25]
[25] = Nap-dU at n (6) positions [Nap-dU at 4,17,24,26,29,32,33,36,45]
[26] = Nap-dU at n (6) positions [13,15-16,18,23-24,29,31,34,41,44]
[27] = Nap-dU at n (6) positions [9,14,18,24,31,32,33,35,44]
[28] = Nap-dU at n (6) positions [Nap-dU at 21,28,30,33,36,37,40,49]
[29] = Nap-dU at n (6) positions [2,4,9,17,19,23,24,25,26,33,35]
[30] = Nap-dU at n (6) positions [1,7,9,15,17,19,24,32,34,38,39,40,41,48,50]
[31] = Nap-dU at n (6) positions [1,6,7,8,14,16,18,20], SB18, 37 C
[32] = Nap-dU at n (6) positions [1,6,7,8,14,16,18,20]

Chain of 4-1BB (TNFRSF9) (Homo sapiens) (Q07011 24-186): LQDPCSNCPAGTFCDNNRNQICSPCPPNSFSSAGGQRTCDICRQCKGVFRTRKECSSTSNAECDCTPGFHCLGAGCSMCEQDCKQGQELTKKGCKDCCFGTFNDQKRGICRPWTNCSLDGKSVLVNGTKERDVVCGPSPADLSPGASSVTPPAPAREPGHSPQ
Chain of PD-L1 (B7-H1) (Homo sapiens) (Q9NZQ7 19-238): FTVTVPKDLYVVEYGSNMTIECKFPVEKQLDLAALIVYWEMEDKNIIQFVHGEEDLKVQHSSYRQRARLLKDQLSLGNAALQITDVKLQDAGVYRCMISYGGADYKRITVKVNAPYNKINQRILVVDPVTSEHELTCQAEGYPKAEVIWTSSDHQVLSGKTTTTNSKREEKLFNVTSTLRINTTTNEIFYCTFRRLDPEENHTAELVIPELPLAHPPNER

AACCTCGCCTTTACAACTATATCTGACGAAC [AB005]
Kd ([1]; Nap-dU at n (6) positions [5,10,11,12,18,20,22,24], SB18, 37 C): 0.12 nM | Kd ([2]; Nap-dU at n (6) positions [5,10,11,12,18,20,22,24]): 53.5 nM

AACCTCGCCTTTACAACTATATCTGACGAACTAACA [AB004]
Kd ([1]; Nap-dU at n (6) positions [5,10,11,12,18,20,22,24,32], SB18, 37 C): 0.05 nM | Kd ([2]; Nap-dU at n (6) positions [5,10,11,12,18,20,22,24,32]): 102 nM

ACCGTCTGCCTGACAACAACGAGTGCGAACTGTACTACTTGATAGAGACCCTCAGCCACACCACCAGCC [AP021]
Kd [3, 4]: 130 nM | Kd [2, 4]: 15.6 nM

CAGGTCGAGCTGTACGCGTGTGTGACCTGAAGAC [AD043]
Kd [2, 5]: 4.18 nM | Kd (KRAS G12D G12D, P01116-2; [5]): 263 nM

CAGGTCGAGCTGTACGCGTGTGTGACCTGAAGACGTATA [AD044]
Kd [2, 6]: 2.93 nM | Kd (KRAS G12D G12D, P01116-2; [6]): 1580 nM

CAGGTCGAGCTGTACGCGTGTGTGACCTGAAGACGTATAACTTT [AD045]
Kd [2, 7]: 0.73 nM | Kd (KRAS G12D G12D, P01116-2; [7]): 20 nM

CAGGTCGAGCTGTACGCGTGTGTGACCTGAAGACGTATAACTTTTACAG [AD046]
Kd [2, 8]: 0.65 nM | Kd (KRAS G12D G12D, P01116-2; [8]): 5.38 nM

CAGGTCGAGCTGTACGCGTGTGTGACCTGAAGACGTATAACTTTTACAGAATCTACA [AD032]
Kd [2, 9]: 0.68 nM | Kd (KRAS G12D G12D, P01116-2; [9]): 15.5 nM

CAGGTCGAGCTGTACGCGTGTGTGACCTGCCCCACTTCTGACATTAGACTGTGTAGA [AD034]
Kd [2, 10]: 0.59 nM | Kd (KRAS G12D G12D, P01116-2; [10]): 473 nM

CCCCGCCTCTTCTGAAGTTAACATGTGCTCC [AD014]
Kd [2, 11]: 28.8 nM | Kd (KRAS G12D G12D, P01116-2; [11]): 1.95 nM

CCCCGCCTCTTCTGAAGTTAACATGTGCTCCGAGA [AD012]
Kd [2, 11]: 28.7 nM | Kd (KRAS G12D G12D, P01116-2; [11]): 23.1 nM

CCCCGCCTCTTCTGAAGTTAACATGTGCTCCGAGATGGTA [AD011]
Kd [2, 12]: 5.46 nM | Kd (KRAS G12D G12D, P01116-2; [12]): 9.46 nM

CCTCTTCTGAAGTTAACATGTGCTCC [AD015]
Kd [2, 13]: 36.8 nM

CCTCTTCTGAAGTTAACATGTGCTCCGAGA [AD013]
Kd [2, 13]: 47 nM | Kd (KRAS G12D G12D, P01116-2; [13]): 3.99 nM

CGCGTGTGTGACCTGAAGACGTATAACTTTTACAGAATCTACA [AD051]
Kd [2, 14]: 5.95 nM | Kd (KRAS G12D G12D, P01116-2; [14]): 514 nM

CTGTACGCGTGTGTGACCTGAAGACGTATAACTTTTACAGAATCTACA [AD052]
Kd [2, 15]: 3.06 nM | Kd (KRAS G12D G12D, P01116-2; [15]): 4.93 nM

GACTAGCATAAGTCCGGATGGCAGCTTTATGCCG [AD006]
Kd [2, 16]: 939 nM | Kd (KRAS G12D G12D, P01116-2; [16]): 77.6 nM

GAGTGACCGTCTGCCTGACAACAACGAGTGCGAACTGTACTACTTGATAGAGACCCTC [AP023]
Kd [3, 17]: 93.2 nM | Kd [2, 17]: 51.7 nM

GAGTGACCGTCTGCCTGACAACAACGAGTGCGAACTGTACTACTTGATAGAGACCCTCAGCCACACCACCAGCC [AP013]
Kd [3, 17]: 74 nM | Kd [2, 17]: 19.1 nM

GAGTGACCGTCTGCCTGCCCCGCCTCTTCTGAAGTTAACATGTGCTCCGAGATGGTACAGCCACACCACCAGCC [AD009]
Kd [2, 18]: 0.65 nM | Kd (KRAS G12D G12D, P01116-2; [18]): 0.51 nM

GAGTGACCGTCTGCCTGGACTAGCATAAGTCCGGATGGCAGCTTTATGCCGACCATCAGCCACACCACCAGCC [AD003]
Kd [2, 19]: 13 nM | Kd (KRAS G12D G12D, P01116-2; [19]): 13.8 nM

GAGTGACCGTCTGCCTGGATATGCCTCTTCTGCAGTTACGGTGTGATCGCCCAATAGCAGCCACACCACCAGCC [TD009]
Kd (KRAS G12D G12D, P01116-2; Nap-dU at n (6) positions [Nap-dU at 20,22,26,28,29,31,36,37,42,44,47,55]): 2480 nM

GAGTGACCGTCTGCCTGTCAATCACTGACGAAATGTACTACTTGATAGAGCTAACCTCAGCCACACCACCAGCC [AP027]
Kd [3, 20]: 354 nM | Kd [2, 20]: 2.17 nM

GAGTGACCGTCTGCCTGTCTCCAACCTCGCCTTTACAACTATATCTGACGAACTAACACAGCCACACCACCAGCC [AB001]
Kd ([1]; Nap-dU at n (6) positions [Nap-dU at 16,18,20,27,32,33,34,40,42,44,46,54], SB18 buffer (5 mM MgCl2), 37 C): 0.04 nM | Kd ([2]; Nap-dU at n (6) positions [Nap-dU at 16,18,20,27,32,33,34,40,42,44,46,54]): 8.39 nM

GAGTGACCGTCTGCCTGTGTCTGAGGGACCCTTTTTAAGGGCATTATCAGCATGCCTCACACAGCCACACCACCAGCC [AD002]
Kd [2, 21]: 1.3 nM | Kd (KRAS G12D G12D, P01116-2; [21]): 0.55 nM

GAGTGACCGTCTGCCTGTGTGAGAATTATGTACCTTAACGATCATCCGAAGGTTTTGACCACAGCCACACCACCAGCC [AD001]
Kd [2, 22]: 8.4 nM | Kd (KRAS G12D G12D, P01116-2; [22]): 8.12 nM

GCATAAGTCCGGATGGCAGCTTTATGC [AD008]
Kd [2, 23]: 66.9 nM | Kd (KRAS G12D G12D, P01116-2; [23]): 287 nM

GCATAAGTCCGGATGGCAGCTTTATGCCGACC [AD007]
Kd [2, 24]: 536 nM | Kd (KRAS G12D G12D, P01116-2; [24]): 152 nM

GCCTGACAACAACGAGTGCGAACTGTACTACTTGATAGAGACCCTCAGCC [AP001]
Kd [3, 25]: 42.7 nM | Kd [2, 25]: 20.9 nM

GCCTGCCCCGCCTCTTCTGAAGTTAACATGTGCTCCGAGATGGTACAGCC [AD010]
Kd [2, 26]: 4.49 nM | Kd (KRAS G12D G12D, P01116-2; [26]): 8.18 nM

GCCTGGACTAGCATAAGTCCGGATGGCAGCTTTATGCCGACCATCAGCC [AD004]
Kd [2, 27]: 190 nM | Kd (KRAS G12D G12D, P01116-2; [27]): 16.6 nM

GCCTGTCTCCAACCTCGCCTTTACAACTATATCTGACGAACTAACACAGCC [AB002]
Kd ([1]; Nap-dU at n (6) positions [6,8,15,20,21,22,28,30,32,34,42], SB18, 37 C): 0.48 nM | Kd ([2]; Nap-dU at n (6) positions [6,8,15,20,21,22,28,30,32,34,42]): 2.92 nM

GTCTGCCTGACAACAACGAGTGCGAACTGTACTACTTGATAGAGACCCTC [AP024]
Kd [3, 28]: 33.3 nM | Kd [2, 28]: 22.3 nM

GTCTGCCTGACAACAACGAGTGCGAACTGTACTACTTGATAGAGACCCTCAGCCACACCACCAGCC [AP022]
Kd [3, 28]: 66.6 nM | Kd [2, 28]: 16.6 nM

GTGTGACCTGAAGACGTATAACTTTTACAGAATCTACA [AD050]
Kd [2, 29]: 5.55 nM | Kd (KRAS G12D G12D, P01116-2; [29]): 455 nM

TCGAGCTGTACGCGTGTGTGACCTGAAGACGTATAACTTTTACAGAATCTACA [AD053]
Kd [2, 30]: 1.37 nM | Kd (KRAS G12D G12D, P01116-2; [30]): 1.03 nM

TCGCCTTTACAACTATATCTGACGA [AB007]
Kd [1, 31]: 0.49 nM | Kd [2, 32]: 186 nM

TCGCCTTTACAACTATATCTGACGAAC [AB006]
Kd [1, 31]: 0.44 nM | Kd [2, 32]: 278 nM

TCTCCAACCTCGCCTTTACAACTATATCTGACGAACTAACA [AB003]
Kd ([1]; Nap-dU at n (6) positions [1,3,10,15,16,17,23,25,27,29,37], SB18, 37 C): 0.87 nM | Kd ([2]; Nap-dU at n (6) positions [1,3,10,15,16,17,23,25,27,29,37]): 19.8 nM
